Assay results from patent publication US20030211575A1.

Legend:
Test in all cases: cell-based or functional assay
[1] = target: Shaker H4 K+ channel, N-terminal deletion 6-46, P475H mutant (Drosophila) (UniProt P08510)
[2] = target: Kv2.1 K+ channel P406D mutant (rat) (UniProt P15387)
[3] = target: Shaker H4 K+ channel, N-terminal deletion 6-46, P475E mutant (Drosophila) (UniProt P08510)
[4] = target: Shaker H4 K+ channel, N-terminal deletion 6-46, P475K mutant (Drosophila) (UniProt P08510)
[5] = target: Shaker H4 K+ channel, N-terminal deletion 6-46, P475D mutant (Drosophila) (UniProt P08510)

Measured: block of channel current (two-electrode voltage clamp, Xenopus oocytes); concentration called saturating

Shaker H4 K+ channel, N-terminal deletion 6-46, P475K mutant (Drosophila), sequence (P08510 whole entry P475K): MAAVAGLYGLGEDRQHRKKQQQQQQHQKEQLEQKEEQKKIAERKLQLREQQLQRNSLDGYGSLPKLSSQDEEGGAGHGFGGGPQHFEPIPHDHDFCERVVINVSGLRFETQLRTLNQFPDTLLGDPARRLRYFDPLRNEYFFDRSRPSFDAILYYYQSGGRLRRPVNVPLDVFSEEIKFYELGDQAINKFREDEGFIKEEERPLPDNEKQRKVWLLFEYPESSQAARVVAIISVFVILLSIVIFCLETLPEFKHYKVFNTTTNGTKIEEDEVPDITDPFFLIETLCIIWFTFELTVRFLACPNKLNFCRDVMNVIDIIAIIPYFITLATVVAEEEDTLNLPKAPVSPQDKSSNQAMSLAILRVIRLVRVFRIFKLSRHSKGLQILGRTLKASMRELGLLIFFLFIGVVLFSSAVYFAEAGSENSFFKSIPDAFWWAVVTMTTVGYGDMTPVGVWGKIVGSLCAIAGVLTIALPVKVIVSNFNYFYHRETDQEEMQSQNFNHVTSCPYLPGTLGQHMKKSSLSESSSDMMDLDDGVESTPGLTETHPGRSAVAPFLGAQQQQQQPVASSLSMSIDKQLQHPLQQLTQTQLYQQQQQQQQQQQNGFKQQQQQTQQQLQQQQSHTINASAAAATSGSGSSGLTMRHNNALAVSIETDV
Shaker H4 K+ channel, N-terminal deletion 6-46, P475H mutant (Drosophila), sequence (P08510 whole entry P475H): as the sequence (P08510 whole entry P475K) above, with K475H counted along it
Shaker H4 K+ channel, N-terminal deletion 6-46, P475E mutant (Drosophila), sequence (P08510 whole entry P475E): as the sequence (P08510 whole entry P475K) above, with K475E counted along it
Shaker H4 K+ channel, N-terminal deletion 6-46, P475D mutant (Drosophila), sequence (P08510 whole entry P475D): as the sequence (P08510 whole entry P475K) above, with K475D counted along it

agitoxin2 (from UniProt P46111 1-38) (peptide)
1 µM: [1] | [2] | [3] | [4] | [5]
